Experimental data as given in patent EP4019090A1 (Numab Therapeutics AG, dated 2022).

Experiments:
[1] = target: T1, IL-4R on HEK-Blue cells (human, UniProt P24394 26-825); test: cell-based or functional assay
T1 sequence (looked up): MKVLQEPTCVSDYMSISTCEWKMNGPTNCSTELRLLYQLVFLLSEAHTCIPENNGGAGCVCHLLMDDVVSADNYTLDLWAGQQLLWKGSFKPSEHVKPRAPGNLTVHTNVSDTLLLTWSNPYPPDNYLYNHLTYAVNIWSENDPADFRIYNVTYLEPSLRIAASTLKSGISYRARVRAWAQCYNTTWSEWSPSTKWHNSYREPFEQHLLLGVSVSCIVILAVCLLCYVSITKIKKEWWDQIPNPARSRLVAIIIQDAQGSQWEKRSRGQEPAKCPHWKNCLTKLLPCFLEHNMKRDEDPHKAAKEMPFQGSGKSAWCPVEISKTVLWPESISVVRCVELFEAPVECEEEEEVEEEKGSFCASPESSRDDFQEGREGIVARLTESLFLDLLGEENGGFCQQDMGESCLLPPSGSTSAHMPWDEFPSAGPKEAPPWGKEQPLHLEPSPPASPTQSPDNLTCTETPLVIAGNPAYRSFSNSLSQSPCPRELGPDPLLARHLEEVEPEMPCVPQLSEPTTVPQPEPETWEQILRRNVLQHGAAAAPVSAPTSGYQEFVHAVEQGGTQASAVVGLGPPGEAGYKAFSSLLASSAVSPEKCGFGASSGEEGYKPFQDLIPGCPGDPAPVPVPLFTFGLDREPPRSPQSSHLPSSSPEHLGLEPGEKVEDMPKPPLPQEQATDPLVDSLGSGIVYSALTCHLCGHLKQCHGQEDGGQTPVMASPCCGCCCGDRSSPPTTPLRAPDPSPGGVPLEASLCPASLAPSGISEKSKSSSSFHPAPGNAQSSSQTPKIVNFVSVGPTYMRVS

[2] = target: T1, IL-4R on HEK-Blue cells; test: cell-based or functional assay; remark: listed apart in the source
[3] = target: T2, recombinant cynomolgus monkey IL-4R (ECD with His-tag, Acro Biosystems) (cynomolgus monkey, UniProt A0A2K5V580 33-239); test: SPR (Biacore T200); antibody captured via anti-human IgG-Fc, cynomolgus IL-4R ECD-His as analyte; 1:1 Langmuir
T2 construct: extracellular domain; also called cynomolgus IL-4R; not shown: His tag
T2 sequence: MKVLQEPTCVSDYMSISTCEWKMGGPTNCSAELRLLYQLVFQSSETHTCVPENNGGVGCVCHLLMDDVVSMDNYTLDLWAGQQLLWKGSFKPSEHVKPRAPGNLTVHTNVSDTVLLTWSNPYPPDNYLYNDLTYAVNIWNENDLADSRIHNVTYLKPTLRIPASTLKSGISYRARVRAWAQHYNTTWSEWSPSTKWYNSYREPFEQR

[4] = target: T3, recombinant human IL-4R protein (ECD with His Tag, Sino Biological) (human, UniProt P24394 26-232); test: SPR (Biacore T200); antibody captured via anti-human IgG-Fc, human IL-4R ECD-His as analyte; 1:1 Langmuir
T3 construct: extracellular domain; also called human IL-4R ECD; not shown: His tag
T3 sequence (looked up): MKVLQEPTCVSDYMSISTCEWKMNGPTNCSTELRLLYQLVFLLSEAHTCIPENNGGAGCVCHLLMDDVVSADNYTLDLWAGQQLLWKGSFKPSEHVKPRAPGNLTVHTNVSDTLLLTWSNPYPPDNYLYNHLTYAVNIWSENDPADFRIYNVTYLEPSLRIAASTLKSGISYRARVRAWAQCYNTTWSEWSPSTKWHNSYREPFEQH

[5] = target: T1, IL-4R on HEK-Blue cells; test: cell-based or functional assay; remark: listed apart in the source

B1: PRO2198 (bispecific antibody)
chain 1: DIQMTQSPSSLSARVGDRVTITCQASEDIESYLAWYQQKPGKAPKLLIYRASTLAYGVPSRFSGSGSGRDFTLTISSLQPEDFATYYCLGSSYSTGSNIFGQGTKVEIKRTVAAPSVFIFPPSDEQLKSGTASVVCLLNNFYPREAKVQWKVDNALQSGNSQESVTEQDSKDSTYSLSSTLTLSKADYEKHKVYACEVTHQGLSSPVTKSFNRGEC
chain 2: not shown
- neutralize human IL-4-induced signaling in the stat-6 reporter gene assay: Mean IC50 [pM] [1]: 23.9 pM
- neutralize human IL-13 induced signaling in the stat-6 reporter gene assay: Mean IC50 [pM] [2]: 22.1 pM

B2: PRO2199 (bispecific antibody)
chain 1: not shown
chain 2: DIQMTQSPSSLSASVGDRVTITCQASEDIESYLAWYQQKPGKAPKLLIYRASTLAYGVPSRFSGSGSGTDFTLTISSLQPEDFATYYCLGSSYSTGSNIFGQGTKVEIKRTVAAPSVFIFPPSDEQLKSGTASVVCLLNNFYPREAKVQWKVDNALQSGNSQESVTEQDSKDSTYSLSSTLTLSKADYEKHKVYACEVTHQGLSSPVTKSFNRGEC
- Kd [3]: 0.0351 nM
- koff [3]: 3.44e-05 s⁻¹
- kon [3]: 980000 M⁻¹ s⁻¹
- Kd [4]: 0.197 nM
- koff [4]: 5.76e-05 s⁻¹
- kon [4]: 293000 M⁻¹ s⁻¹
- neutralize human IL-4-induced signaling in the stat-6 reporter gene assay: Mean IC50 [pM] [1]: 11.5 pM
- neutralize human IL-13 induced signaling in the stat-6 reporter gene assay: IC50 [pM] (single analysis) [2]: 11.3 pM

B3: PRO1517 (scFv)
chain: DIQMTQSPSSLSASVGDRVTITCQASEDIESYLAWYQQKPGKAPKLLIYRASTLAYGVPSRFSGSGSGTDFTLTISSLQPEDFATYYCLGSSYSTGSNIFGTGTKVTVLGGGGGSGGGGSGGGGSGGGGSEVQLVESGGGLVQPGGSLRLSCAASGFSSSSAHYMCWVRQAPGKGLEWIGCIYAGSRGSTYYASWAKGRFTISRDNSKNTVYLQMNSLRAEDTAVYYCARAAFVNRGVSWIWPYYFSLWGQGTLVTVSS
- Neutralization of hIL-4-induced signaling in reporter gene assay: IC50 [5]: 1.44 ng/mL
- Neutralization of hIL-13-induced signaling in reporter gene assay: IC50 [5]: 1.83 ng/mL

B4: PRO1535 (scFv)
chain: DIQMTQSPSSLSASVGDRVTITCQASEDIESYLAWYQQKPGKPPKLLIYRASTLAYGVPSRFSGSGSGTDFTLTISSLQPEDFATYYCLGSSYSTGSNIFGTGTKVTVLGGGGGSGGGGSGGGGSGGGGSESQLVESGGGLVQPGGSLRLSCAASGFSSSSAHYMCWVRQAPGKGLEWIACIYAGSRGSTYYASWAKGRFTISKDNSKNTVYLQMNSLRAEDTAVYFCARAAFVNRGVSWIWPYYFSLWGQGTLVTVSS
- Neutralization of hIL-4-induced signaling in reporter gene assay: IC50 [5]: 1.15 ng/mL
- Neutralization of hIL-13-induced signaling in reporter gene assay: IC50 [5]: 2.3 ng/mL
